Measurements reported in publication PMC8043444 (bioRxiv, 2021).

Assays:
[1] = biological target: SARS-CoV-2 HexaPro Spike protein for cryoEM analysis (SARS-CoV-2 (Wuhan-Hu-1), UniProt P0DTC2, stabilised); experiment: cryo-EM structure
[2] = biological target: yeast-displayed unmutated SARS-CoV-2 RBD (Wuhan-Hu-1) (SARS-CoV-2, UniProt P0DTC2); experiment: flow cytometry on cells

B1: S2H97 Fab (Fab, V domains shown)
VH: QVRLVQSGAEVKKSGESLKISCKGSGYSFTSYWIGWVRQMPGKGLEWMGIIYPGDSDTRYSPSFQGQVTISADKSISTVYLQWSSLKASDTAMYYCARQWSHYTYDYYYWGQGTLVTISS
VL: QSVLTQPASVSGSPGQSITISCTGISSDVGGYNSVSWYQQHPGKAPKLMIYDVTNRPSGVSNRFSGSKSGNTASLTISGLQAEDEADYYCSSYTSSSTPPYVFGTGTKVSVL
B1: binds [1].

B2: S2H14 IgG1 (LS) (antibody, V domains shown)
VH: not shown
VL: NFMLTQPHSVSESPGKTVTISCTRSSGSIASNYVQWYQQRPGSSPTTVIYEDNQRPSGVPDRFSGSIDSSSNSASLTISGLKTEDEADYYCQSYDSSNQVFGGGTKLTVL
B2: binds [2].

B3: S2D106 Fab (Fab, V domains shown)
VH: EVQLVQSGAEVKKPGSSVKVSCKASGGPFSSSAISWVRQAPGQGLEWMGGIIPMVGTANYAQKFQGRVTITADESTSTAYMELSSLRSEDTAVYYCARDSRYCSGGSCYSVWFDPWGQGTLVTVSS
VL: not shown
B3: binds [1].
